{"source": "patent EP4793287A1", "about": "“TUMOR MICROENVIRONMENT SPECIFICALLY ACTIVATED CD47 ANTIBODY” (Affinity (Shanghai) Biopharmaceutical Co., Ltd., priority 2023, dated 2025)", "molecules": {"B1": {"name": "CD47 TMEAbody: CD47 TMEAbody conjugated with PEG of approximately 20K molecular weight (i.e., PEG20K) (conjugate)", "VH": "QQQLEESGGGLVKPEGSLTLTCTASGFSFSSGYDMCWVRQAPGRGLEWIACIYTRSSGGTCYASWAKGRFTISKTSSTVDLRMTSLTAADTATYFCAGGRSSYRLNLWGQGALVTVSS", "VL": "DVVMTQTPSPVEAAVGGTVTIKCQASQSISNELSWYQQKPGQPPKLLIYRASTLESGVSSRFKGSGSGTEFTLTISDLECADAATYYCQSTFYGDYGNAFGGGTEVVVK"}}, "key": {"[1]": {"target": "T1, Recombinant human CD47 protein (Homo sapiens, UniProt Q08722)", "T1 construct": "purchased DIMA BIOTECH PME-100008", "T1 sequence (Q08722 19-323)": "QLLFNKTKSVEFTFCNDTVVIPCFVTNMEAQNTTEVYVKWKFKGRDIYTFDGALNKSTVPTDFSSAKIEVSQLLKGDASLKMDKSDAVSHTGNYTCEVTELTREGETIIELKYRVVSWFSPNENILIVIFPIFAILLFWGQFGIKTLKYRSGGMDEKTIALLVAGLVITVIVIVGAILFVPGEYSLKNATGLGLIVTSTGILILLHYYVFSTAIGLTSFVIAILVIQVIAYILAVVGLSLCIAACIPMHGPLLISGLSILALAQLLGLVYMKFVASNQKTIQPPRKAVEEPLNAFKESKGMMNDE", "test": "ELISA detection of CD47 antibody", "format": "binding", "method": "Recombinant human CD47 protein (DIMA BIOTECH, Cat# PME-100008) was diluted with PBS to a concentration of 1 µg/ml, coated onto ELISA plates with 100 µl/well, and incubated overnight at 4 °C. On the following day, the plates were washed with 300 µl/well of PBST for three times. 300 µl/well of blocking solution (PBST containing 1% BSA (W/W)) was added, and the plates were blocked at 37 °C for 2 hours. After the blocking solution was discarded, the plates were washed with PBST for three times. 100 µl/well of antibody (5-fold gradient dilution, 8 dilution points) was added and incubated at 37 °C for 1 hour. The antibody solution was then discarded, and the plates were washed with PBST for three times. Goat anti-Human IgG Fc Highly Cross-Adsorbed Secondary Antibody, HRP (Invitrogen, Cat# A18829, 1:5000 dilution, 100 µl/well) was added and incubated at 37 °C for 0.5 hours, followed by three washes with PBST. 100 µl/well of TMB chromogenic substrate (solarbio, Cat# PR1200) was added and incubated at 37 °C for 5 minutes, after which 50 µl/well of ELISA stop solution (solarbio, Cat# C1058) was added. The OD450 was read using a microplate reader (ELx800 Absorbance Microplate Reader, BioTek). Data analysis and curve fitting were performed using software (GraphPad Prism 8)."}, "[2]": {"target": "human CD47 antigen (Homo sapiens, UniProt Q08722)", "sequence (Q08722 19-323)": "as above", "test": "Affinity measurement by SPR (BIAcore T200)", "details": "25 °C, 1:1 binding model", "method": "The binding affinity between the antigen and the antibody was measured using a BIAcore T200 instrument. The binding strength between the CD47 antigen and the antibody was determined using a CM5 chip (purchased from Cytiva, Cat# 29149603) via amine coupling. First, the CD47 antigen was immobilized onto the CM5 chip. According to the instructions of the Amine Coupling Kit (purchased from Cytiva, Cat# BR100050), using PBST as the running buffer, NHS and EDC were mixed and injected to activate the chip for approximately 420 seconds. The CD47 antigen was diluted to 10 µg/mL in 10 mM sodium acetate (pH 5.5) and injected to achieve an immobilization level of 141.2 RU. Finally, the remaining activated sites were blocked with 1 M ethanolamine (pH 8.5). Subsequently, the affinity of the antibody for the CD47 antigen was determined using the multi-cycle kinetics method. In each cycle, a single concentration of the antibody protein was injected, and the association and dissociation processes between the antibody and the antigen protein were recorded. Finally, the chip was regenerated with Glycine-HCl (pH 1.5). […] Data were analyzed according to a 1:1 binding model, and the kinetic parameters of antibody-antigen binding, including the association rate constant (Ka), dissociation rate constant (Kd), equilibrium dissociation constant (KD), and maximum binding signal (Rmax), were fitted."}, "[3]": {"target": "T2, binding of CD47 on Raji cells to SIRPα (Homo sapiens, UniProt Q08722)", "T2 construct": "endogenous in cells; host or cells: Raji", "T2 sequence (Q08722 19-323)": "as above", "test": "Blocking of SIRPα binding on Raji cells (FACS)", "format": "cell-based", "method": "The required cell line, Raji (cultured in RPMI-1640 (ATCC Modification, Gibco, Cat# A10491-01) + 10% FBS (BI, Cat# 04-001-1A) + 1× P/S), was expanded to the logarithmic phase. Cells were collected and pipetted to create a single-cell suspension, followed by centrifugation and removal of the supernatant. The cells were resuspended in FACS buffer (PBS + 2% FBS) and counted, and the cell density was adjusted to 2×10^6/ml. 100 µl/well of this suspension was added to a 96-well plate (Corning, Cat# 3799). After centrifugation and removal of the supernatant, 100 µl/well of the antibody sample to be tested (CD47 Antibodies at an initial concentration of 200 nM, with 5-fold gradient dilutions and 8 dilution points, mixed with an equal volume of Human SIRP alpha, mFc (DIMA Biotech, Cat# PME100531) at 16 µg/ml) was added, mixed with the cells, and incubated at 4 °C for 1 hour. Cells were washed by centrifugation with FACS buffer for three times, then added with 100 µl/well of Goat F(ab')2 Anti-Mouse IgG-Fc (PE), pre-adsorbed (abcam, Cat# ab98742, 1:200 dilution) and incubated at 4 °C for 1 hour. After three washes with FACS buffer by centrifugation, the cells were resuspended in 200 µl/well of FACS buffer and analyzed using FACS (BECKMAN COULTER, CytoFLEX). Data were fitted and the results were analyzed using software (GraphPad Prism 8)."}, "[4]": {"test_system": "Raji cells", "test": "ADCC assay with PBMCs, LDH detection", "format": "cell-based", "method": "Raji cells (cultured in RPMI-1640 (ATCC Modification, Gibco, Cat# A10491-01) + 10% FBS (BI, Cat# 04-001-1A) + 1× P/S) were expanded to the logarithmic phase. Cells were collected and pipetted to create a single-cell suspension. After centrifugation, the supernatant was discarded, and the cells were resuspended in culture medium, counted, and the cell density was adjusted to 2×10^5/ml. 50 µl/well of this suspension was added to a 96-well cell culture plate (Corning, Cat# 3599) and incubated overnight at 37°C in a 5% CO2 atmosphere. PBMCs (XF, Cat# XC11100W) were resuspended in 10% FBS-RPMI1640 medium. After centrifugation, the supernatant was discarded, and the cell density was adjusted to 8×10^6/ml. 50 µl/well of the antibody to be tested and 50 µl of the PBMC suspension (E:T ratio of […]) were added to the culture plate. The plate was placed in a CO2 incubator and incubated for 24 hours. The ADCC assay was performed using an LDH detection kit (Cytotoxicity Detection KitPLUS (LDH), Roche, Cat# 4744934001)."}, "[5]": {"details": "after the CD47 TMEAbody was activated"}}}
{"molecule": "B1", "values": [{"measurement": "binding affinity weaker compared to 70H1", "setting": "[1]", "result": "approximately 7 fold"}, {"measurement": "recovery of binding affinity", "setting": "[1]; legumain (asparaginyl endopeptidase, AEP)", "result": "recoverable by legumain"}, {"measurement": "Ka", "setting": "[2]", "result": 24400, "unit": "M⁻¹ s⁻¹"}, {"measurement": "activity in blocking the binding of CD47 on Raji cells to SIRPα", "setting": "[3]; [5]", "result": "restored"}, {"measurement": "activity in blocking the binding of CD47 on Raji cells to SIRPα", "setting": "[3]; not activated", "result": "significantly reduced"}, {"measurement": "EC50", "setting": "[4]; ADCC, E:T ratio of 20:1, 24 hours", "result": 16.3, "unit": "nM"}, {"measurement": "ADCC activity", "setting": "[4]; [5]", "result": "restored"}, {"measurement": "ADCC activity", "setting": "[4]; not activated, compared to the 70H1 antibody", "result": "lost its ADCC activity"}]}
